Results: patent US20100021473A1 (DOMANTIS, published 2010)
Positions count from the first letter of the chain named.

Tests used:
[1] = target: T1, CD38 and CD138 co-expressed on cells (CD38+/CD138+ double positive cells) (UniProt P28907 1-300; P18827 23-310); assay: FACS cell binding titration on OPM2 cells (CD38+/CD138+), arithmetic mean fluorescence. The table prints no unit; the unit is taken from the x axis 'log conc in nm' (nanomolar).
T1 construct: whole, on cells; Two separate membrane proteins on the same cell, not a complex; also called RPMI8226; OPM2
Protocol: (§1) The determination of cell binding by FACS was carried out as follows: cells were centrifuged at 250 g for 5 minutes and the growth medium was removed. The cells were resuspended in FACS incubation buffer at 4° C. at a density of 2×10⁶ cells/ml. The cells were blocked by incubating for 15 minutes at 4° C. in FACS incubation buffer. Fifty microliters of 2× stock of primary antibody (anti-CD38 FITC, anti-CD138 FITC or mIgG1 FITC conjugated isotype control (all BD Biosciences) was added; or dAb was added to cells in FACS incubation buffer and incubated for 30-60 minutes at 4° C. The cells were then washed once in FACS incubation buffer. One hundred microliters of secondary antibody (rabbit anti-Vk) was added to cells in FACS incubation buffer and incubated 30-60 minutes at 4° C. The cells were washed once in FACS incubation buffer. Then 100 ul of 1× tertiary antibody was added to the cells in FACS incubation buffer and incubated for 30-60 mins at 4° C. (for dAbs the tertiary antibody is anti-rabbit FITC (Sigma)). The cells were washed twice in FACS incubation buffer. The cell pellet was resuspend in 200 ul FACS incubation buffer+viable cell marker (BD Viaprobe). The cells were then analyzed by flow cytometry.
Anti-CD38 and anti-CD138 affinity matured dAbs were paired to create dual specific ligands by cloning an anti-CD38 dAb and an anti-CD138 dAb into a dual expression vector. To determine if the increased affinity of the monomers was reflected in increased binding affinity of the dual specific ligand, a range of the affinity matured anti-CD38 dAbs were paired with the anti-CD138 dAb DOM12-45, a range of affinity matured anti-CD138 dAbs were paired with anti-CD38 dAbs, and a range of affinity matured anti-CD38 dAbs and affinity matured anti-CD138 dAbs were paired. All dual specific ligands were expressed in E. coli and purified using protein L agarose followed by Resource S cation exchange chromatography when required. The binding affinity of the dual specific ligands was assessed by FACS as described previously. In this study, a range of concentrations was used to allow determination of EC50.

CD138 on cells [2] = target: T2, CD138 on cells (UniProt P18827 23-310); assay: FACS dot plot (FSC-H against FL1-H) on H647 cells (CD38-/CD138+), ligand at 50 nM
T2 construct: whole, on cells; Endogenous CD138 on cell lines used in FACS; also called DOM12; syndecan-1
T2 sequence (looked up): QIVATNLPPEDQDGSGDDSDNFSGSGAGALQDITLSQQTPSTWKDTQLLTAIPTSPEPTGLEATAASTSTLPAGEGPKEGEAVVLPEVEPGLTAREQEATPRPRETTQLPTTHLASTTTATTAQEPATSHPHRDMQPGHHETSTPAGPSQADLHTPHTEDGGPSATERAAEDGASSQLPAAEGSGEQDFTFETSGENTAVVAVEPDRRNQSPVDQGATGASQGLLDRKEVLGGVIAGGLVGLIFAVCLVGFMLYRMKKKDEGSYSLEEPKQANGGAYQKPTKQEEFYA

[3] = target: T1, CD38 and CD138 co-expressed on cells …; assay: FACS cell binding titration on OPM2 cells (CD38+/CD138+), arithmetic mean fluorescence against log conc in nm
CD138 on cells [4] = target: T2, CD138 on cells; assay: FACS on RPMI cells (CD38+/CD138+), dAb at 500 nM
Protocol: (§2) All dAbs were analysed by FACS on antigen positive and negative cell lines using the following method.
as §1

[5] = target: T3, CD38 immobilised on Biacore CM5 chip (UniProt P28907 43-300, limits assumed); assay: SPR (Biacore), CD38 immobilised on CM5 chip
T3 construct: also called DOM11
Protocol: (§3) Anti-CD38, anti-CEA and anti-CD56 dAbs that were identified as FACS positive clones were in addition analysed by Biacore using the following procedure. The CM5 chip surface was activated by flushing 1:1 EDC/NHS (0.4M1-ethyl-3-(3-dimenthylaminopropyl)-carbodiimide in water; 0.1 M N-hydroxysuccinimide in water) at a flow rate of 5 uL/min for 10 minute contact time. CD38 was immobilised at 500 nM in Acetate buffer pH4 at 5 uL/min this was repeated until the RUs reached between 500 and 1000 (low density). CEA and CD56 were coupled in acetate buffer pH 4.5. Any excess reactive groups were deactivated by running 1M ethanolamine-HCl over the CM5 chip (again 5 uL/min for 7 mins). The affinities of the anti-CD38, anti-CEA and anti-CD56 dAbs were measured on the biacore as described above.

[6] = target: T3, CD38 immobilised on Biacore CM5 chip; assay: Biacore, CD38 immobilised; lower end of the printed range 330-500 nM (Table 8, affinity maturation experiment)
[7] = target: T3, CD38 immobilised on Biacore CM5 chip; assay: Biacore, CD38 immobilised; upper end of the printed range 330-500 nM (Table 8, affinity maturation experiment)
CD138 on cells [8] = target: T2, CD138 on cells; assay: FACS on HUVEC cells (CD38-/CD138+)
Protocol: as §2, §1

CD38 on cells = target: T4, CD38 on cells (UniProt P28907 1-300); assay: FACS on RPMI cells (CD38+/138+)
T4 construct: whole, on cells; Endogenous CD38 on cell lines used in FACS or microscopy; also called DOM11; T10
Protocol: as §2, §1

[9] = target: T3, CD38 immobilised on Biacore CM5 chip; assay: SPR (Biacore) co-injection on immobilised CD38, dAbs at 500 nM
Protocol: as §3
Epitope mapping was performed to determine whether anti-CD38 dAbs bound to different epitopes on CD38. The assay was performed on BIAcore as described above using a chip coated at medium density (RUs of ˜2000). CD38 was coated on to a CM5 chip at medium density as described above. Using the co-inject function, the first anti-CD38 dAbs was injected at a concentration of 500 nM. Both the first and second anti-CD38 dabs were the co-injected at the same concentration (500 nM). As both dAbs bind different epitopes, the RUs during the second injection increase beyond the level of binding of the first dAb.

B1: DOM11-3/DOM12-45 anti-CD38/anti-CD138 dual specific ligand (bispecific antibody)
chain: DIQMTQSPSSLSASVGDRVTITCRASQNIDSRLSWYQQKPGKAPKLLIYRTSVLQSGVPSRFSGSGSGTDFTLTISSLQPEDFATYYCQQWDMFPLTFGQGTKVEIKRSSGGGGSGGGGSGGGGSGGGGSGGGGSTDIQMTQSPSSLSASVGDRVTITCRASQDIGDRLRWYQQKPGKAPKLLIYHGSRLESGVPSRFSGSRSGTDFTLTISSLQPEDFATYYCQQQWFRPYTFGQGTKVEIKR
notes: In-line fusion of two dAbs, expressed in E. coli; also called DOM11-3/12-45
Binder B1 has an EC50 [1] of 44.4 nM and a percent of cells right of the FL1-H gate line (CD138 on cells [2]) of 3%.

B2: DOM11-3-15/DOM12-45-1 (bispecific antibody)
chain: B1 chain with T51A, S65T, T97S, K175N, S201N
B2 showed an EC50 (read off the curve) [3] of 100 nM.

B3: DOM12-45 (other)
chain: DIQMTQSPSSLSASVGDRVTITCRASQDIGDRLRWYQQKPGKAPKLLIYHGSRLESGVPSRFSGSRSGTDFTLTISSLQPEDFATYYCQQQWFRPYTFGQGTKVEIKR
notes: Anti-CD138 dAb monomer
B3: binds (CD138 on cells [4]).

B4: DOM11-3 (other)
chain: DIQMTQSPSSLSASVGDRVTITCRASQNIDSRLSWYQQKPGKAPKLLIYRTSVLQSGVPSRFSGSGSGTDFTLTISSLQPEDFATYYCQQWDMFPLTFGQGTKVEVK
notes: Anti-CD38 domain antibody (dAb) monomer; also called DOM11-3A
Work on B4 yielded a Kd [5] of 250 nM, a Kd [6] of 330 to 500 nM and a Kd [7] of 330 to 500 nM. B4: no binding (CD138 on cells [8]).

B5: DOM11-23 (other)
chain: DIQMTQSPSSLSASVGDRVTITCRASQSINVRLIWYQQKPGKDPKLLIYSSSHLQSGVPSRFSGSGSGTDFTLTISSLQPEDFATYYCQQYHYTPFTFGQGTKVEIKR
notes: Anti-CD38 dAb monomer
B5: binds (CD38 on cells); binds [9].
